Tested on: Saccharomyces cerevisiae
Test: transcriptional activation domain activity (GFP:mCherry ratio, weighted mean of sorted bins, harmonized to initial dataset scale) (arbitrary fluorescence ratio units); higher = stronger transcriptional activation
Conditions: beta-estradiol 1 µM; induction time 4 h
Summary of the method: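 For this assay, yeast diploids with a GFP reporter carried barcoded protein tiles at URA3, each fused to an estradiol-inducible synthetic transcription factor. Induction was a 1:5 dilution into SC with 1 uM beta-estradiol for 4 hours at 30 °C, followed by sorting into 8 bins by GFP:mCherry ratio and barcode sequencing. Tiles under 50 reads were dropped, and activation activity was calculated as the read-weighted mean of bin median fluorescence, averaged across barcodes and linearly mapped onto the initial dataset scale.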

| Sequence | transcriptional activation domain activity |
| --- | --- |
| GYIGLSSGYFWSGLLYNVSITISLYCLAMFWVCLHDDLVPFRPVPKFLVIKLV | 53000 |
| MAKKASGSADKKTADKGDKKGKAKPTADDGEDKQSKGKGALKAATAVNVRHIL | 44600 |
| LLFFFFFFLLLFFLLFLLLRSRPPSSFSPASIVWPLRAGFGIPLPLFLLFFLP | 20800 |
| KQAAEEGDRPKQGGKESGEKENGKAEGSQAREKDRPADGEGKSSDEAGKAKDE | 12500 |
| MIMILLVAVLYFLLFRFDLLGLFYCQLFLLSSHLRFVLSTLYLNGSHHLLFFF | 34000 |
| LIHFFRLYRSGHGPIRMFFLHIQALYNLFNLIFSWFALANLWLTFSIIIRLVP | 70000 |
| MRVGVGGLLWLLCGSPFFFLHFISFVFLFFWSLLFFLFCRALHTPFSSYYNYH | 72000 |
| IKITKEHKWIIVFKIRYKLFKYLVILFKLTNGASLFSYFINSLLFYNLLNNFY | 54600 |
| MHSMRHAPSSFFLLFRPVIVFMAVVFSNFYLLPLLFSLLYVILCFFLYILFVS | 34600 |
| REYNRMLRFYGVQDHQVKNTRLSVKEAFMLIIYRCVEVFCLFILSLPMIVLAS | 58200 |
| MVLLCAYERVGLGRSIGFGIFFFLPLFLLLLLTHFSFLFFFFAFTFILMMACL | 57800 |
| KQYCVRPNSGRIDPGKEVEVQVLLQAMKEDPPLDAKCRDKFLVQSVAVSADKE | 64500 |
| VVDYHTTYRRMIIVCLQSVLGLFRDMVEQFLGVIYTIYVLIRVFVVFPVWVIY | 61200 |
| YFWVLGAIPYFVFHSAFCLLWSLFFWFSCWYLSFKILLFRCFFFLFYYSMPSQ | 55200 |
| GDLGFRDSIVTKVLQDARSNFLVSVSRLLRPIFVLMKKWVRLAVERLNICHSR | 33300 |
| KSDVEADRQRLIYSGKVLKDDDILSSCKIQSGHTVHMVKGAARAAAASSSSAP | 58300 |
| LFTSIYYIIILSRSCLFFLFSLPLFQDALFLFVDSVQLYMWGILLFILSSLFF | 42900 |
| MFCLRSWLPLLFIPTNASPVFILLFFIGTYFLNRPCVYCSLLLLILFSTSCVW | 39400 |
| MDILDIFFLFYSLLVSFLFFSLLIPPLFLSSFISISFYFFDGVLCVLLGFFFR | 61500 |
| RKRGWSDEDGEGEGAEGGEAQNGKGKGKGRGRRARGKGKGKGKESAEAEKDED | 27200 |
| ESSLSDKAEPKKEDSGKMAEAPKPAPEPKKEPKKEESKPAAKQESKKEVEEKA | 35200 |
| GVVWCGVIFGFVAFHILCLFDVFFSFFFFFFEFWFWFFGFVYLNGLGWVGVGW | 40100 |
| GGGTAARSAGSSSREEERGQRRHGRGERGREGADAGRKGGREGTREALAGKGR | 30800 |
| DPTSRAPTAVRVRVKHSSGEEQEEEERLPADGVVICAGPWTGRVARRLLGEKV | 37200 |
| EVLHLFIHFSFIFALYMLCFFLPAKHLCNLLTWYKYLFFLLSIMLFFLILIGT | 64200 |

| Sequence | transcriptional activation domain activity |
| --- | --- |
| LAEGAATEEAKTEEGSAPAGETAALAEAAATEEAAATEEVKEEKKEEAATTKA | 29900 |
| PQYLHLGYLGHHIAIDPIPHPVGTVYLPLPPDTFPTWCTVTACGWILLPLFPL | 29000 |
| WLAHSKKKTCDVCKHPYSFTKVYATDMPTRLPPVLLLRRVAQQSFFAMLFAVR | 48100 |
| ESPSQINDFIPQKLIIEPNTLELNGLTEETPHDLPKNTAKGRDEEDFPLDYFP | 55200 |
| DGYRNDNRGRNRRGNGRSRSPRGGKDSRNGTPPLTEDERDKRTIFVQQLAARL | 57100 |
| NVLDASSVIARRAVETGGRNVPRGAAGGGAPRNRARGFELEIGNATLLGRRHN | 29200 |
| MAKLRELMKKLEEEVVGEDGEKRMVQPTIMQEPFRSFFRTAVSVYLPNVLGAK | 52600 |
| MTQLYPFFLLFFAGLTMLLLLNHTFLPRVSVKSVKSLFRCNVRGFGTFFLFFL | 43800 |
| QKRGLETHHRRSGFWAALRRAEKGKSWVFLFFFFLFFPFFSFFYFFLLFLFLF | 21800 |
| KKPAAKKQKTAPAEKINTTDDSKKARGRPKKADSNGTAKAAQKKKEPKAAATA | 32900 |
| KSKSSRSSRRREGEEDDDRRRRRHRHRSRSHSRGRDGDNDDPKEKRRSRRHDD | 38400 |
| FRFLLKLLLVHGRWNYIRTCKYTLGTFWKEMLFYLTQALYQRWAGYTGTSLYE | 54800 |
| KKSSTSSTAAPKKRTPAKKSTPAPTPSPSASPEPVKPKKTSSKKAAKPVAVAE | 25400 |
| LGTEVVTLEDEIYYIWVRYYSIALLVFDTPNSHLCHSRNNLGQLVAVINVFLF | 46300 |
| ASASPARAPAAEVPPPVEIHVGDRCEVDRATGVARGTVRFVGEAEMPPPRPGA | 42400 |
| VVLWHIVISLRFWFNFVSVVPALRWVYLSIYEIKVDYKNLIEYTLPQLCSLFI | 54600 |
| RFRALRLLVIDDMIRLRDQSHCGWICTFLSSIELDVIQCINFRIWINMCPEFY | 32600 |
| IWSFVILLRETVLCGSIVLAISATSDYFYYGLWTFPPYQWLNFNLTQSLAVFY | 66800 |
| LHLFGLVLVWVSYLLFWVFLLFSFVYPDWLLALFILRIILFLFSFSVILFYFI | 47100 |
| MPPNHPIRLFPLLVQILLLLSASSLLLDTYDYINLGINSSFSYYYFLHLLTFL | 44200 |
| MILTLFALCFFFLDTSSCFLHFISIVSFLISLILCLFFFFFLVASEPFHFIPS | 57900 |
| PLVRWMLDYVINHGEIVHSHPSIRTLATSLIDHPYFLSFICSSFFIEPRGLSG | 34800 |
| RFLICDYLLIIAGLFNIVATSLTQVVVNLGLGRHIMDPSVFPNILQYSYYLWI | 25000 |
| RQAAMPKRKSPEEEDEEDEEEAPAKPAAKKAKTATAANGEKKSAGRGRPKKAA | 31700 |
| VKAAAPKRGGRKKKVEAKAEAGDEVEAAVFEKKEVEEEEKEKGGEKEVKETVE | 9930 |

| Sequence | transcriptional activation domain activity |
| --- | --- |
| DYSIAQFRFLQRLLLVHGHWNYNRIAQYALATFWKEMLFYCIQLLYQRWNGYT | 37500 |
| AMRSWSGLMVLSMYDFRPIRSLIASILFPNAAIRETVLDLLFSLLRIKPPAWA | 38100 |
| VHFIYHHSFRMRFYYFFLLSFLQAGRSIGFLIHGFWCFLLLIAFFVYPFLRFV | 64600 |
| VFLKVYLLNPLHMTRFADLLYQGAILNRIFQPYESHLQYLLQWMCDYNLYGCA | 71200 |
| FGVGMVPLGCQWACHLVALMVLFDVGWLCISRFILLDSMLLFFTFLTVFCMTK | 57900 |
| LGFLYDLIPFFFCCLPFLPFLAPPLKKHLALFQFHPLLHLPLLLPFFFLYFRP | 50200 |
| IEAEEAEEIGVEHLLRDIASSSGAPSSTLLTTQSLSTRVAAQLNALQGLRARL | 66900 |
| KQYCVRPNSGRIEAGKDVEVQVLLQAMKEDPPQGYKCRDKFLVQSVAITADRE | 21700 |
| SSPSIQTASSVSTVLVVGSNDKTVKDVGEGLKTKLGVKGGGKGPRWSGKFIGV | 19700 |
| CVCRMILAPLLHLFISFFLLCMAAVASPPLRWILWYYWGCFTVQEVNWHMLRF | 45500 |
| VVEALRLPLKPIQLLSKLFLRRLYEQDQLEEIRGIAKQIKIELYLLVALNVLL | 54000 |
| ITQVEDRSKGYLIGLVKELVAEYVEDLNALVLLACSLKVGIQVSSAAGMIYKK | 53600 |
| MLIVSRAGFLAFLLCYLHFCSVVVHVFSLPIGQPVTGYGNGNSVNPRSPIVPS | 52100 |
| MRLCFAKYHFPPPSTFFPPLLFSLLCPVAFYANYCPFFFFFLFLFPYSFFVQE | 63600 |
| AANKNAKRREARKKAAAAAGEGNEEDKGASAETKEDKSAEVKEKENVKPASEK | 29600 |
| TNPDKIRLIPGFKYLQLVLGRDQYCREILAMMARMGFLMPKTMYSTLLRLWLL | 65200 |
| GGEGEKKKREGKEGREKRGGRRKKGRGKKGRGREGRKKGKRKREGKGKKGEKR | 24600 |
| MAALLWVLAVCLWIHPLSILAFTFHSVEGFKLVREILLDVLPTFDPHSYQIDG | 53200 |
| RSRAEGGSSPGRGGSEDGAGAGKPGKERRDKSRGARAKQCGCKAVNQDKSCEC | 21900 |
| LVGALGPPGGLYSSSAGDTQERRRRREGERALKGFEVGDKWAGEVARRLRRTA | 60100 |
| LGLSIWTPWKDVYTRLPKRIYAKLLATAEMEVKYKPKVLVSQIWNAVIISMYR | 61600 |
| MPLLPRWRGKACKVVILAQFDHRYYIHGTLKRLTDVVAWLKAWWICVFWLGSR | 61300 |
| DKEAKADVEEKPKTPRGRKRKTAEEVNGEEAQTEKEPPVKKTKPASKAKPASK | 42600 |
| MDCLLNPVVPCLVCFLPFVCKIAVSLHLPLWSICCVCVSIRIALVCTLIAFII | 50400 |
